Reference: PMC5742583, “A Functional Analysis on the Interspecies Interaction between Mouse LFA-1 and Human Intercellular Adhesion Molecule-1 at the Cell Level” (Frontiers in Immunology, 2017)

B1: mouse D1D5Fc: mouse Fc chimera containing the five extracellular domains of ICAM-1, R&D systems (protein)
chain: QVSIHPREAFLPQGGSVQVNCSSSCKEDLSLGLETQWLKDELESGPNWKLFELSEIGEDSSPLCFENCGTVQSSASATITVYSFPESVELRPLPAWQQVGKDLTLRCHVDGGAPRTQLSAVLLRGEEILSRQPVGGHPKDPKEITFTVLASRGDHGANFSCRTELDLRPQGLALFSNVSEARSLRTFDLPATIPKLDTPDLLEVGTQQKLFCSLEGLFPASEARIYLELGGQMPTQESTNSSDSVSATALVEVTEEFDRTLPLRCVLELADQILETQRTLTVYNFSAPVLTLSQLEVSEGSQVTVKCEAHSGSKVVLLSGVEPRPPTPQVQFTLNASSEDHKRSFFCSAALEVAGKFLFKNQTLELHVLYGPRLDETDCLGNWTWQEGSQQTLKCQAWGNPSPKMTCRRKADGALLPIGVVKSVKQEMNGTYVCHAFSSHGNVTRNVYLTVLYHSQNN
modifications: left off: Fc, end not stated, kept
notes: mouse Fc chimera containing the five extracellular domains of ICAM-1, R&D systems
B2: human D1D5Fc: human Fc chimera containing the five extracellular domains of ICAM-1, R&D systems (protein)
chain: QTSVSPSKVILPRGGSVLVTCSTSCDQPKLLGIETPLPKKELLLPGNNRKVYELSNVQEDSQPMCYSNCPDGQSTAKTFLTVYWTPERVELAPLPSWQPVGKNLTLRCQVEGGAPRANLTVVLLRGEKELKREPAVGEPAEVTTTVLVRRDHHGANFSCRTELDLRPQGLELFENTSAPYQLQTFVLPATPPQLVSPRVLEVDTQGTVVCSLDGLFPVSEAQVHLALGDQRLNPTVTYGNDSFSAKASVSVTAEDEGTQRLTCAVILGNQSQETLQTVTIYSFPAPNVILTKPEVSEGTEVTVKCEAHPRAKVTLNGVPAQPLGPRAQLLLKATPEDNGRSFSCSATLEVAGQLIHKNQTRELRVLYGPRLDERDCPGNWTWPENSQQTPMCQAWGNPLPELKCLKDGTFPLPIGESVTVTRDLEGTYLCRARSTQGEVTRKVTVNVLSPRYE
modifications: left off: Fc, end not stated, kept
notes: human Fc chimera containing the five extracellular domains of ICAM-1, R&D systems
B3: mouse ICAM-1: mouse ICAM-1, purified cell-free models of ref [29] (protein, UniProt P13597 28-537, looked up)
Intercellular adhesion …: QVSIHPREAFLPQGGSVQVNCSSSCKEDLSLGLETQWLKDELESGPNWKLFELSEIGEDSSPLCFENCGTVQSSASATITVYSFPESVELRPLPAWQQVGKDLTLRCHVDGGAPRTQLSAVLLRGEEILSRQPVGGHPKDPKEITFTVLASRGDHGANFSCRTELDLRPQGLALFSNVSEARSLRTFDLPATIPKLDTPDLLEVGTQQKLFCSLEGLFPASEARIYLELGGQMPTQESTNSSDSVSATALVEVTEEFDRTLPLRCVLELADQILETQRTLTVYNFSAPVLTLSQLEVSEGSQVTVKCEAHSGSKVVLLSGVEPRPPTPQVQFTLNASSEDHKRSFFCSAALEVAGKFLFKNQTLELHVLYGPRLDETDCLGNWTWQEGSQQTLKCQAWGNPSPKMTCRRKADGALLPIGVVKSVKQEMNGTYVCHAFSSHGNVTRNVYLTVLYHSQNNWTIIILVPVLLVIVGLVMAASYVYNRQRKIRIYKLQKAQEEAIKLKGQAPPP

Experiments:
mouse macrophages [1] = assay: Mouse macrophage adhesion to mouse ICAM-1 (D1D5Fc)-coated plates; assay type: cell-based; conditions: plates coated with 5 µg mouse D1D5Fc; compared with human D1D5Fc; MTT
Method: (§1) Mouse macrophages were differentiated from mouse bone marrow as previously described ([37]). Briefly, bone marrow cells isolated from mouse femur were cultured in DMEM 10% FBS, 5% horse serum, and 30% supernatant of L929 cell culture as a source of M-CSF at a density of 10^6/cm^2 for 7–8 days. Macrophage differentiation was analyzed in the same way as human macrophages but using CD11b-APC and CD11c-PE (BD) antibodies.
(§2) Freshly isolated monocytes or differentiated macrophages were washed twice with PBS and incubated with trypsin (PAN Biotech) for 30 min at 37°C 5% CO2. After that, cells were scraped gently from the plate and resuspended at a final concentration of 10^6 cells/ml in complete RPMI medium. Subsequently, 10^5 macrophages and 5 × 10^5 monocytes were added to each well and incubated with several concentrations of human D1D2, D1D2Fc, D1D5Fc, mouse D1D5Fc, control human IgG1 20 µg or lovastatin 100 µM at 37°C 5% CO2 overnight. Next day, every well was washed twice with PBS, complete RPMI medium was added and the number or adherent remaining cells was quantified by a MTT colorimetric test ([38]). In some experiments, plates previously coated with human and mouse D1D5Fc were used. […]
(§3) Figure 7 Human intercellular adhesion molecule (ICAM)-1 blocks LFA-1-mediated mouse macrophage cell adhesion. […] (B) Macrophage phenotype was analyzed by flow cytometry testing the expression CD11b and CD11c. […]

[2] = test system: gp33-pulsed EL4 cells killed by mouse Tc cells (ICAM-1/LFA-1); assay: CD8+ T cell-mediated cytotoxicity on EL4; assay type: cell-based; conditions: ICAM-1 proteins, several (increasing) amounts, preincubation 45 min 37°C, effector:target 10:1, 4 h, annexin-V/7-AAD by FACS, three experiments by duplicate
[3] = test system: LFA-1 in the mouse T cell line EL4; assay: Binding of ICAM-1 chimeras to LFA-1 on EL4 cells by flow cytometry; assay type: cell-based; conditions: mouse or human D1D5Fc 0.1 and 5 µg, 4°C 45 min; representative experiment
Method: The ability of human D1D2Fc and mouse and human D1D5Fc to recognize LFA-1 on mouse cells was analyzed by flow cytometry in the mouse thymic lymphoma cell line EL4. EL4 cells were incubated with different concentrations of human D1D2Fc, mouse and human D1D5Fc and human IgG1 control at 4°C for 45 min, washed twice with FACS buffer (PBS, 5% FCS, 0.1% NaN3), and then incubated with PE-conjugated goat anti-human IgG (Fcγ fragment specific; Jackson ImmunoResearch). After a washing step with FACS buffer, cells were analyzed by FACS using a FACS Calibur with CellQuest Pro software (BD). As control cells were incubated with an antibody against mouse CD11a (LFA-1) before adding human D1D2Fc.
Figure 2 Analysis of D1D2Fc binding to LFA-1 in EL4 cells by flow cytometry. (A) Different amounts of D1D2Fc (0.1, 1, and 10 µg) or human IgG1 control (10 µg) were incubated with EL4 cells. After washing out non-bound proteins, cells were incubated with PE-conjugated goat anti-human IgG Fcγ Ab and analyzed by flow cytometry. As a control EL4 cells were pretreated with a mouse LFA-1 blocking antibody (anti LFA-1) before incubating with 10 µg of D1D2Fc. Histograms show a representative experiment. […] After washing out non-bound proteins, cells were incubated with PE-conjugated goat anti-human IgG Fcγ Ab and analyzed by flow cytometry. […]

mouse macrophages [4] = assay: Mouse macrophage adhesion to human ICAM-1 (D1D5Fc)-coated plates; assay type: cell-based; conditions: plates coated with 5 µg human D1D5Fc; compared with mouse D1D5Fc; MTT
Method: as §1, §2, §3

human LFA-1 = conditions: purified cell-free models; ref [29]; cited from earlier work
Description: Humanized mice are widely used as in vivo models to study the molecular basis of immune-related disorders as well as the efficacy of potential drugs ([23]). In these mice, the native gene of interest is replaced by its human homolog or the immune system is eliminated and reconstituted with its human counterpart. In addition, these mice can be used to enhance the engraftment of human cancer cells allowing in vivo studies of cancer progression and treatment. Here, a major obstacle to analyze human cell function, either healthy or transformed, and disease is the lack of species cross-reactivity o ...

Molecule	adhesion of mouse macrophages to coated plate (mouse macrophages [1])	inhibition of Tc cell-mediated cell death of EL4 [2]	inhibition of Tc cell-mediated cell death of EL4 ([2]; listed as mouse ICAM-1 (D1D5Fc))	binding to EL4 cells [3]	adhesion of mouse macrophages to coated plate (mouse macrophages [4])	binding to human LFA-1 (human LFA-1)
B1	similarly adhered	similarly prevented cell death	inhibited cell death	bound to EL4 cells	–	–
B2	–	–	–	binding of human ICAM-1 was higher than binding of mouse ICAM-1	similarly adhered	–
B3	–	–	–	–	–	binds human LFA-1
